Data on three molecules can be found in patent US20180237511A1 (Sanofi, published 2018).

First the molecules themselves.
T1: human beta-dystroglycan extracellular domain (soluble) (human, UniProt Q14118 654-749)
T1 construct: extracellular domain; The expression construct of soluble human beta-DG is not described (only the mouse one); also called hBeta-DG; hbeta-DG
T1 sequence (looked up): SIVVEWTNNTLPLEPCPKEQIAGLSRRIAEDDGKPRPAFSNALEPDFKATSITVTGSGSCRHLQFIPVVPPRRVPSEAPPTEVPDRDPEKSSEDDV

B1: triAb 3423 (bispecific antibody)
light 1: EIVLTQSPDFLSVTPKEKVTLSCRASQSISNYLHWYQQKSDQSPKLLIKYASQSISGIPSRFSGSGSGTDFTLSINSVEAEDAATYFCQQSKSWPRTFGGGTKLEIKDKTHTEIVLTQSPDFLSVTPKEKVTLTCRASQSISNNLHWYQQKSDQSPKLLIKYASQSISGIPSRFSGSGSGTDFTLTINSVEAEDAATYFCQQSKSWPRTFGGGTKLEIKDKTHTRTVAAPSVFIFPPSDEQLKSGTASVVCLLNNFYPREAKVQWKVDNALQSGNSQESVTEQDSKDSTYSLSSTLTLSKADYEKHKVYACEVTHQGLSSPVTKSFNRGEC
heavy 1: EVQLVESGGGLVKPGGSLRLSCAASGFTFSSYTMSWVRQAPGKGLEWVASISSSGSNTYYPDSVKGRFTISRDNAKNNLYLQMNSLRAEDTALYYCARFDYGSSLDSWGQGTLLTVSSDKTHTEVQLVESGGGLVKPGGSLRLSCAASGFTFSSYTMSWVRQAPGKGLEWVASISSSGSNTYYPDSVKGRFTISRDNAKNNLYLQMNSLRAEDTALYYCARFDYGSSLDSWGQGTLLTVSSDKTHTASTKGPSVFPLAPSSKSTSGGTAALGCLVKDYFPEPVTVSWNSGALTSGVHTFPAVLQSSGLYSLSSVVTVPSSSLGTQTYICNVNHKPSNTKVDKKVEPKSCDKTHTCPPCPAPELLGGPSVFLFPPKPKDTLYITREPEVTCVVVDVSHEDPEVKFNWYVDGVEVHNAKTKPREEQYNNASRVVSVLTVLHQDWLNGKEYKCKVSNKALPAPIEKTISKAKGQPREPQVYTLPPCRDELTKNQVSLWCLVKGFYPSDIAVEWESNGQPENNYKTTPPVLDSDGSFFLYSKLTVDKSRWQQGNVFSCSVMHEALHNHYTQKSLSLSPG
heavy 2: QVQLVQSGAEVVKPGSSVKVSCEASGFTFTDSVITWVRQRPGQGLEWIGEIYPGSGNFYYNEKFQGRVTITADKSTSTAYMELSSLRSEDTAVYFCAMRRSSWGQGTLVTVSSASTKGPSVFPLAPSSKSTSGGTAALGCLVKDYFPEPVTVSWNSGALTSGVHTFPAVLQSSGLYSLSSVVTVPSSSLGTQTYICNVNHKPSNTKVDKKVEPKSCDKTHTCPPCPAPELLGGPSVFLFPPKPKDTLYITREPEVTCVVVDVSHEDPEVKFNWYVDGVEVHNAKTKPREEQYNNASRVVSVLTVLHQDWLNGKEYKCKVSNKALPAPIEKTISKAKGQPREPQVCTLPPSRDELTKNQVSLSCAVKGFYPSDIAVEWESNGQPENNYKTTPPVLDSDGSFFLVSKLTVDKSRWQQGNVFSCSVMHEALHNRFTQKSLSLSPG
light 2: DVVMTQTPLSLSVTPGQPASISCKSSQTIVHSNSKTYLEWYLQKPGQSPQLLIYKVSSRFSGVPDRFSGSGSGTDFTLKISRVEAEDVGVYYCFQGSHVPLTFGQGTKLEIKRTVAAPSVFIFPPSDEQLKSGTASVVCLLNNFYPREAKVQWKVDNALQSGNSQESVTEQDSKDSTYSLSSTLTLSKADYEKHKVYACEVTHQGLSSPVTKSFNRGEC
notes: Trivalent: CODV arm VH1/VL1 C3_Hu10, VH2/VL2 C21_Hu11
B2: triAb 3437 (bispecific antibody)
light 1: EIVLTQSPDFLSVTPKEKVTLTCRASQSIGNNLHWYQQKSDQSPKLLIKYASQSISGIPSRFSGSGSGTDFTLTINSVEAEDAATYFCQQSKSWPRTFGGGTKLEIKDKTHTEIVLTQSPDFLSVTPKEKVTLSCRASQSISNYLHWYQQKSDQSPKLLIKYASQSISGIPSRFSGSGSGTDFTLSINSVEAEDAATYFCQQSKSWPRTFGGGTKLEIKDKTHTRTVAAPSVFIFPPSDEQLKSGTASVVCLLNNFYPREAKVQWKVDNALQSGNSQESVTEQDSKDSTYSLSSTLTLSKADYEKHKVYACEVTHQGLSSPVTKSFNRGEC
heavy 1: EVQLVESGGGLVKPGGSLRLSCAASGFTFSSYTMSWVRQAPGKGLEWVASISSSGSNTYYPDSVKGRFTISRDNAKNNLYLQMNSLRAEDTALYYCARFDYGSSLDSWGQGTLLTVSSDKTHTEVQLVESGGGLVKPGGSLRLSCAASGFTFSSYTMSWVRQAPGKGLEWVASISSSGSNTYYPDSVKGRFTISRDNAKNNLYLQMNSLRAEDTALYYCARFDYGSSLDSWGQGTLLTVSSDKTHTASTKGPSVFPLAPSSKSTSGGTAALGCLVKDYFPEPVTVSWNSGALTSGVHTFPAVLQSSGLYSLSSVVTVPSSSLGTQTYICNVNHKPSNTKVDKKVEPKSCDKTHTCPPCPAPELLGGPSVFLFPPKPKDTLYITREPEVTCVVVDVSHEDPEVKFNWYVDGVEVHNAKTKPREEQYNNASRVVSVLTVLHQDWLNGKEYKCKVSNKALPAPIEKTISKAKGQPREPQVYTLPPCRDELTKNQVSLWCLVKGFYPSDIAVEWESNGQPENNYKTTPPVLDSDGSFFLYSKLTVDKSRWQQGNVFSCSVMHEALHNHYTQKSLSLSPG
heavy 2: QVQLVQSGAEVVKPGSSVKVSCEASGFTFTDSVITWVRQRPGQGLEWIGEIYPGSGNFYYNEKFQGRVTITADKSTSTAYMELSSLRSEDTAVYFCAMRRSSWGQGTLVTVSSASTKGPSVFPLAPSSKSTSGGTAALGCLVKDYFPEPVTVSWNSGALTSGVHTFPAVLQSSGLYSLSSVVTVPSSSLGTQTYICNVNHKPSNTKVDKKVEPKSCDKTHTCPPCPAPELLGGPSVFLFPPKPKDTLYITREPEVTCVVVDVSHEDPEVKFNWYVDGVEVHNAKTKPREEQYNNASRVVSVLTVLHQDWLNGKEYKCKVSNKALPAPIEKTISKAKGQPREPQVCTLPPSRDELTKNQVSLSCAVKGFYPSDIAVEWESNGQPENNYKTTPPVLDSDGSFFLVSKLTVDKSRWQQGNVFSCSVMHEALHNRFTQKSLSLSPG
light 2: DVVMTQTPLSLSVTPGQPASISCKSSQTIVHSNSKTYLEWYLQKPGQSPQLLIYKVSSRFSGVPDRFSGSGSGTDFTLKISRVEAEDVGVYYCFQGSHVPLTFGQGTKLEIKRTVAAPSVFIFPPSDEQLKSGTASVVCLLNNFYPREAKVQWKVDNALQSGNSQESVTEQDSKDSTYSLSSTLTLSKADYEKHKVYACEVTHQGLSSPVTKSFNRGEC
notes: Trivalent: CODV arm VH1/VL1 C21_Hu11, VH2/VL2 C3_Hu11
B3: triAb 3439 (bispecific antibody)
light 1: EIVLTQSPDFLSVTPKEKVTLTCRASQSISNNLHWYQQKSDQSPKLLIKYASQSISGIPSRFSGSGSGTDFTLTINSVEAEDAATYFCQQSKSWPRTFGGGTKLEIKDKTHTEIVLTQSPDFLSVTPGEKVTLTCRASQSISNYLHWYQQKSDQSPKLLIKYASQSISGVPSRFSGSGSGTDFTLTISSVEAEDFATYFCQQSKSWPRTFGGGTKLEIKDKTHTRTVAAPSVFIFPPSDEQLKSGTASVVCLLNNFYPREAKVQWKVDNALQSGNSQESVTEQDSKDSTYSLSSTLTLSKADYEKHKVYACEVTHQGLSSPVTKSFNRGEC
heavy 1: EVQLVESGGGLVQPGGSLRLSCAASGFTFSSYTMSWVRQAPGKGLEWVATISSSGDNTYYPDSVKGRFTISRDNSKNTLYLQMSSLRAEDTALYYCARFDYGSSLDSWGQGTTLTVSSDKTHTEVQLVESGGGLVKPGGSLRLSCAASGFTFSSYTMSWVRQAPGKGLEWVASISSSGSNTYYPDSVKGRFTISRDNAKNNLYLQMNSLRAEDTALYYCARFDYGSSLDSWGQGTLLTVSSDKTHTASTKGPSVFPLAPSSKSTSGGTAALGCLVKDYFPEPVTVSWNSGALTSGVHTFPAVLQSSGLYSLSSVVTVPSSSLGTQTYICNVNHKPSNTKVDKKVEPKSCDKTHTCPPCPAPELLGGPSVFLFPPKPKDTLYITREPEVTCVVVDVSHEDPEVKFNWYVDGVEVHNAKTKPREEQYNNASRVVSVLTVLHQDWLNGKEYKCKVSNKALPAPIEKTISKAKGQPREPQVYTLPPCRDELTKNQVSLWCLVKGFYPSDIAVEWESNGQPENNYKTTPPVLDSDGSFFLYSKLTVDKSRWQQGNVFSCSVMHEALHNHYTQKSLSLSPG
heavy 2: QVQLVQSGAEVVKPGSSVKVSCEASGFTFTDSVITWVRQRPGQGLEWIGEIYPGSGNFYYNEKFQGRVTITADKSTSTAYMELSSLRSEDTAVYFCAMRRSSWGQGTLVTVSSASTKGPSVFPLAPSSKSTSGGTAALGCLVKDYFPEPVTVSWNSGALTSGVHTFPAVLQSSGLYSLSSVVTVPSSSLGTQTYICNVNHKPSNTKVDKKVEPKSCDKTHTCPPCPAPELLGGPSVFLFPPKPKDTLYITREPEVTCVVVDVSHEDPEVKFNWYVDGVEVHNAKTKPREEQYNNASRVVSVLTVLHQDWLNGKEYKCKVSNKALPAPIEKTISKAKGQPREPQVCTLPPSRDELTKNQVSLSCAVKGFYPSDIAVEWESNGQPENNYKTTPPVLDSDGSFFLVSKLTVDKSRWQQGNVFSCSVMHEALHNRFTQKSLSLSPG
light 2: DVVMTQTPLSLSVTPGQPASISCKSSQTIVHSNSKTYLEWYLQKPGQSPQLLIYKVSSRFSGVPDRFSGSGSGTDFTLKISRVEAEDVGVYYCFQGSHVPLTFGQGTKLEIKRTVAAPSVFIFPPSDEQLKSGTASVVCLLNNFYPREAKVQWKVDNALQSGNSQESVTEQDSKDSTYSLSSTLTLSKADYEKHKVYACEVTHQGLSSPVTKSFNRGEC
notes: Trivalent: CODV arm VH1/VL1 C21_Hu21, VH2/VL2 C3_Hu10

The assay addresses T1, human beta-dystroglycan extracellular …. Put plainly: SPR, antibody on Protein G chip, beta-DG in flow, 1:1 model (table title says laminin-2; paragraph 445 says human beta-DG). Here is the method:
Data was evaluated with a 1:1 binding model using the BIAevaluation software.
SPR was used as described above to analyze the kinetics of triAb binding to laminin-2 (Table N) or beta-DG (Table O).
(In general: Surface plasmon resonance follows binding to a sensor surface in real time, without labels.)
A word on the Kd: it is the constant that tells how readily two partners part at equilibrium. Read a low Kd as a tighter complex. One may read the koff as a measure of how fast the partners let go of each other. Read a high koff as fast dissociation. As a reminder, the kon is a measure of how fast the partners come together. Low values mean slow association, high ones fast association. In the case of B1, the Kd is 1.6 nM, the off-rate constant (koff) was 0.00433 s⁻¹ and the kon was 2.7e+06 M⁻¹ s⁻¹.
Taken in the same sequence, the figures for B2 were 1.87 nM, 0.0045 s⁻¹ and 2.41e+06 M⁻¹ s⁻¹.
Taken in the same sequence, the figures for B3 were 1.3 nM, 0.004 s⁻¹ and 3.07e+06 M⁻¹ s⁻¹.
